These results are taken from the DeepSol protein solubility set.

The nature of this data set: soluble on expression in E. coli; label from the status in PepcDB or PDB records.
For “MGSDKIHHHHHHMYRVMFVDDEYMILEGLKWIIPWQELGFEIVKTARSAQEALAFLETESIDVLLTDITMPEMSGIELIEQAKKKGHQFISLILSGYQEFDYVKKGMALQVQDYLLKPVNKQELLANIQRIKIELDQQKKSHARVRLYLENGLMRWLNDEISEGEYEELMQQFATIKPGDFTVLLVEAEMSFLETIKELFMKKGQLLFIESWMSTYHQLLLIYKGARQEAFLFIREIEAILAGQGQIFVGESVNEWETVYESYEKVKQLQAIETFYQEFLPNNQKEQMNRSAEDFTFLAFNQALMIGDMQTIQRELDAIFNQLSQQHATPEYVRYVVFLLFSDISRQYPTVLEENYEKIVEEIRASNNLNTLYALMQQVLAEVKNKPKIKKYSESVSQAVERIEQGYLEELNLKTVADELHLNPSYLGQIFKKETKRSFSQYLNQVRTKHAQKLLLYTDDTINEISEKVGFNNTNYFSKMFKKLNGITPKEFREQYQSNYAGVEE”, the “soluble on expression in E. coli” value is given as “not soluble”.

Turning to “MSNNIVPSSVLPAGENLLTVPDYAERIGQPVTRVFDQIGEHKLICVLDNGIKKIPEAFLSEKGTTNKFVPGVIALLSDGGYTDQEIFKFLFTEDESLPGRPIDAIHGHLAREVMRRAQAMGF”, the “soluble on expression in E. coli” value is “soluble”.

Turning to “MRVVVCGGGVIGACAAYFLRRRGIDVTVVERTEVAAAASGKAGGFLARDWCTGTPLDALARRSFALHAQLPEDISGDWGYRPMTAYSGFVASDGDARRDAPSALGWLSDGVVIAQRIGTAETTAIVHPRKFTSAVMNAALAQGAELRPGRVTGITRGTDGMTAGGVEIDGDLVEADAVVIAMGPWSLLAAQWMSLPPVYGQRSPSIVYDTAADAPAEALFLESEEDGSAVSIEVFPRADGSTHITALSDIAPLPLDPAAVTPDRDAIARLQTVSERLSPLFRPERIIAQQACFRPVTQDGLPLIGKVPRSDGLYVATGHNVWGILNAPATGEALAELIAEGATREIDLSPFDPARLTPLDPSLLQARLEHHHHHH”, the “soluble on expression in E. coli” value was “not soluble”. Then “MIVLGLEGTAHTISCGIIDESRILAMESSMYRPKTGGIRPLDAAVHHSEVIDTVISRALEKAKISIHDIDLIGFSMGPGLAPSLRVTATAARTISVLTGKPIIGVNHPLGHIEIGRRVTGAIDPVMLYVSGGNTQVIAHVNGRYRVLGETLDIGIGNMIDKFAREAGIPFPGGPEIEKLAMKGTKLLDLPYSVKGMDTAFSGILTAALQYLKTGQAIEDISYSIQETAFAMLVEVLERALYVSGKDEILMAGGVALNRRLRDMVTNMAREAGIRSYLTDREYCMDNGIMIAQAALLMYKSGVRMSVEETAVNPRFRIDEVDAPWITDASRKDYGKAGAESRIEEVSFHGRPAIRKVRISKSYRNSDLDKKIRYERMRNEFTILRKLKEAGVNSPVVYDFDPFSMSITMQKIPGRMMSAELNEGRTDFLNELGIMIAKMHRAGIAHGDLTVNNIIVNDSVFIIDPSMGKVNAEIEDMAVDIYALEDSIKGLGLDSGSVIGQMLKSYRNNFNLADDVLETVSAIRRRHRYV”, with “soluble”. Then “MIEPGVNYADLFAKEVRKHPKKYPKTVRLAIDRWYRWKKRKDIWFDVDRANEMMDWVESFIVHTKGDMVGKPFLLEPWEKFIYSWIYGWVKENEKGQVVRVTREAYVQIPKKNGKTLIAVGALGYAMYGEGALSVDCYACASDFAQAQYAAKPFAATILNNPVLLDGTKIFKGPKGTVSSITYDYLHGDMAYTNKFIVQTKNIDNIEGSNPYFVLNDELHKQEKMEQYDNFKSAQISLPQPLMFNISTAGKGSSSVGIRVYKEAKEVLKRDDNDSNFVLIYEPNKGYDWTDRKVWEMCNPNWGISVDLSALESAFKTAQRSAHSKAEFLTKHLDVFVNGADNFFEQDQVEPCLVPTNELGNLSGEPCWIGLDLSKSRDLTCVSLNFPTWDAEGKAILKVKQLYFIPSENIDFREKEDNVPYSELAEQGFVEFCDGKLIDQEQIFHFIEDCMDFYDVQQVNYDPAMSDRLVEKLENLGLECVQVDQYARVLNSPLEDAERLFYEQRIMFDNPLFLYCALNVVVKMDFQGRKVPSKNQSKRKIDGFVAFLCAHKETMDQMIDVNEDDMDEYLDSIYR”, with “not soluble”; and “SNAVFGVKEWECEVLSNKNVSTFIKEFVVKLPEGETMNFKSGSYAQIKIPKYNIRYADYDIQDRFRGDWDKMDAWSLTCKNEEETVRAYSMANYPAEGNIITLNVRIATPPFDRAANKWKAGIKPGISSSYIFSLKPGDKVMMSGPYGDFHIQDTDAEMLYIGGGAGMAPLRAQILHLFRTLKTGRKVSYWYGARSKNEIFYEEDFREIEREFPNFKFHIALSDPQPEDNWTGYVGFIHQVIYDNYLKDHDAPEDIEYYMCGPGPMANAVKGMLENLGVPRNMLFFDDFG”, with “soluble”; and “MAGDPMYHSRPIFNIIDSSNIQDRRELKLVLRHTEIAYRSFAQEDLIPAQRSWMNSIINTDVPIDPAIDEVVKRFCEVACLPGPAGIPLNIILNDSLTYVYCSFQAMRKYAHKRFYDGVSDEGVVISTVPPYAEGITKETMRSWHNNVCQNTSNETHDLDAYIAFLPTSLQNPSFSHMKIGCDSFLAPSRVDPFCVEIIAVGKALFHDNGLKKNPRCGGQWLPPSCLEHHHHHH”, with “not soluble”. Regarding “MQQKDAVPDTAKKLKAPLTGLKTEQKVTERRPVAVVVNNHPKARPQSGLSKADIVIEALAEGQITRFLAIFQSQMPETVGPVRSAREYFVTLSNGFDSIFVHHGWSPGAKKQLESGAADYMNGLDFDGSLFWRADFSKPPHNSYTSYDYIKKAAEQKGYKLKQETNPLLFQTSDAKPANESYNVRVDYGTNNVTNLVEYNYDKKAEFYTRSSDGVITTDRETGKPVAMQNIFIVEASHHIIDQDGRRDIDLESGGKGLLFQHGNVIETDWKQVNGRIVPVKDGKWLPFVPGKTWINIVPDLDAASISKGEGVLEHHHHHH”, the “soluble on expression in E. coli” value is on record as “soluble”.

“MYNSMDEVPVSLHASIDTGDGEFDMNALISNNAHILFIVLDSLRYDIALQEQTAGNTPNLNHYGQWTKCEAAGNFTWPSHHAMFSGFMPKPIDDTVNQTMLFFPKDIGLGRKGPKNAFAFDDATWIKSLENKGYQTICIGGVSFFNNRSGMGKVFPSMFKESYWHPRFACTVKESMDNQIHYIQKIMAERAGSQPVMMYINIDTIHYPNHFYVEGAAPGDTVETHAAALRYIDARIDGLLNIFRQTGGATFVIVCSDHGTCYGEDGKYFHSFNHPIVNTVPYMHFLLSGNHLEHHHHHH”: the “soluble on expression in E. coli” value was “soluble”. Then “MSTAVIVSRPPSQTASFHGPQHPNRCSFSSSSSESIPPTTGRAKGSSDFEELEIRIDKALKERDAEWRKHEKSQIQFLQNETSNMLKSLHNEINRLGNELREEKRKTLHGDDDSADKIAELEKVITEKEAYTKNLEKKVSTTIQKLQEQITIQSDRIRQLNEELSDRNQTVTHLSQQLRAIKLREAMATSQHRRRASSQLSTTSSPPMTSPSSPHRIFPPVSSGLLSASVAVTYPGNSRISIQKRSTSAMRAPTMPN”, with “not soluble”; and “MKIAVVGGGIVGLSTAFELSSRGHSVHVFDPNPASGASHFAGGMLAPAAEVQFQQDPLFPLMKRAGKLWPDMVRRVAQRTNLPTGYRTEGTLVVAADRADAEHLKQLRATQEAAGMDVRPITTRQARGLEPALGPRLSAAVHIPNDTQVAPRVFLTALLDALDDCGVGVIKEKITDLEPLYQQFD”, with “not soluble”. The entry for “MAFSVAYDLIPNKLIKDIDEMNQWLHDKINRAVYLVGFATQQSDYEYKLYELFKALDELEERLKKQLFLFGNQLTESDLYLLATLERFDNIYFCLFKCSLKRIADYPALFRYHNQLRGMESLASTYQPVLTKEHYFMSTMHVLGLEHHHHHH” is “not soluble”; for “NVQEEVTCPICLELLTEPLSLDCGHSLCRACITVSNKEAVTSMGGKSSCPVCGISYSFEHLQANQHLANIVE” it is “soluble”. The entry for “MQQEHRECIEQCYECAAACDICASSCLREDNVEMMKHCIQLDMQCAAICRLAAQFMALESEYSQKLCRLCADICKACAEECARHDHDHCQNCARACSQCADACLKMAALEHHHHHH” is “not soluble”. As to “MAAAAELSLLEKSLGLSKGNKYSAQGERQIPVLQTNNGPSLMGLTTIAAHLVKQANKEYLLGSTAEEKAMVQQWLEYRVTQVDGHSSKNDIHTLLMDLNSYLEDKVYLTGYNFTLADILLYYGLHRFIVDLTVQEKEKYLNVSRWFCHIQHYPGIRQHLSSVVFIKNRLYTNSH”, the “soluble on expression in E. coli” value was “soluble”. Then “MGSDKIHHHHHHMLEIVAFRGDEYGLSARILADFLDEFRIHEMSPDNFNGKEEIENDFIIVCNPKLLTENFLRQAYEYSRDRGIYFGVISALSIDLLREKLANYQEQISLDPQQYLIILRKENKSIKHRLNAEVFTRYESTVDNFDRVKHKKLCLSMVIDGNRRHLHLSDGKICGINRDIPLEEIYRYFPDCQNCEYERVYAQDVQAECIFMDSCSSTLISTSEKGEYINVGMNFLKNAKVLISSYRPKQGYNSEALLFHHLISHGFEAGEVLYILNTNSYNHCSDYLPYILYGFPNAKVTIPEKLEVDRLRMGKSEIVLEIDRIAGMRLLEIHAGEDILNEVLKRQFYVFSSDEIRKDVFYSVIPYPLKNSIKLFLYSWEEVNGPLRIVFGVGKRLREDVYSKRYFNMRKLELLGFRHKKIQNQVHDYFSKINEQTEVLDEANRNLKNFDLHRLSKNLSAVEERIYNLLADHLLSQNPKFFIEVYGENMTVRCAEEDLHKTIRCPYCGNYLSIKESENTLVPMKRYSGFCSNCHNVFDTESVHPPKYPEIVLVHEQPDRKIFYVKVWNENAHTTNNLVCFNLWCENRSEMENIYLSRDFQVFTLEPGGEEKFEVEVALKRTDQRINKTYCLYVYWFEDFNLSVSTYTFRLKNV”, with “not soluble”; and “MSLAQEIALTPQPAHLTVKDGRFEFGNQLKAKVTPYQGDSIRMVFESFKKELQEATGIKVSSTQKEAKARIILDLNPQLPAEAYKLNVSKKQVRIEASRPAGFYYALQTLKQLMPRNVMAGVATSDHSQWSLPSVEIEDAPRFEWRGFMLDEGRHFFGKDEIKRVIDMMAIYKMNRFHWHLTEDQGWRIEIKKYPKLTETGAWRNSKVLAYGDVKPDGERYGGFYTQKDIKEIVAYAKKKFIEIIPEIDIPGHSQAAVAAYPEFLACDPRDKHEVWLQQGISTDVINVANPKAMQFAKEVIDELTELFPFNYIHLGGDECPTRKWQKNDECKKLLSEIGSSNFRDLQIYFYKQLKDYIATKPADQQRQLIFWNEVLHGNTSILGNDITIMAWIGANAAAKQAAKQGMNTILSPQIPYYINRKQSKLPTEPMSQGHGTETVEAVYNYQPLKDVDAALQPYYKGVQANFWTEWVTEPSVLEYLMLPRLAAVAEAGWTPQEKRNYEDFKERIRKDAELYDLKGWNYGKHIMKEGHHHHHH”, with “soluble”. As to “MGSDKIHHHHHHMRDYSPYPLLVDVCVTNRCNLSCSYCSAEAGPFASKKGEMSVEKLDSIFRELNLMGVPRVGVTGGEPFIRDDILDILKAFDKYHFAKVLNTNGNLITDSVAKELSKLHLDRICVTVDGSCSKVHDSQRGKGSFKKAIEGIKNLQRYNLPVSTLFTLGRHNVDDLINTIRLNDMLRIKYMSVMIICPTGRANNGSILADKKHWYPVFLDLTERLSRGEFKVKFKIVPPNESDVFWTHYFPLAFYNRLDLLESVWHQSLNFNSNKKREISCQAGVRACSINHKGDVYGCDLMNGIDELVAGNVKEKSFYEIWHNSSIFHKLRNITFDDISGKCAGCPLPWCGGGCRCSALELDGTLLGSDLACFYDEEESVLV”, the “soluble on expression in E. coli” value was “not soluble”.
